Data: the supplement of paper PMC10567573

B1: ZNF263 (parent)
chain: QPKKLHLCPLCGKNFSNNSNLIRH
B2: FAM164C (parent)
chain: YPHCTGISQQDPESDSQGQGNGLF

Variants of: B1
Test: protein stability index of a GFP-peptide fusion (GPS, HEK-293T) (PSI 1-6); higher = more stable
Conditions: c terminus: a fixed tail appended
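Note: lentivirally expressed fusions sorted by FACS into six bins by GFP to DsRed ratio, PSI derived from sequencing read proportions per bin multiplied by bin number.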

Protein stability index: each site, then its substitutions
K13: M 2.69, N 2.77, P 1.82, Q 2.11, R 2.53, S 2.41, T 2.15, V 2, W 1.8, Y 2.91
N14: A 3.29, C 3.93, D 2.08, E 3.52, F 2.69, G 2.63, H 3.06, I 3.33, K 2.94, L 2.84, M 2.83, P 2.61, Q 3.1, R 2.35, S 3.48, T 2.97, V 3.04, W 3.51, Y 2.57
F15: A 2.03, C 2.53, D 2.56, E 2.07, G 1.8, H 3.33, I 2.36, K 2.06, L 2, M 1.99, N 2.45, P 2.22, Q 1.89, R 2.61, S 2.19, T 1.95, V 1.82, W 1.95, Y 2.46
S16: A 2.4, C 2.57, D 2.72, E 2.62, F 2.48, G 3.42, H 2.42, I 2.36, K 2.56, L 2.34, M 2.96, N 2.38, P 2.49, Q 2.44, R 2.17, T 2.21, V 2.05, W 2.09, Y 2.6
N17: A 2.69, C 2.33, D 2.48, E 2.33, F 2.06, G 2.09, H 2.43, I 2.25, K 2.28, L 2.58, M 2.26, P 2.33, Q 2.42, R 2.07, S 2.66, T 2.91, V 2.18, W 2.15, Y 2.23
N18: A 2.97, C 2.48, D 2.8, E 3.66, F 2.76, G 1.8, H 2.82, I 2.33, K 2.31, L 3.11, M 2.5, P 3.28, Q 3.17, R 3.36, S 2.39, T 2.45, V 2.86, W 2.73, Y 3.22
S19: A 2.65, C 3.3, D 3.24, E 3.14, F 2.54, G 1.96, H 2.55, I 2.58, K 3.37, L 2.96, M 2.7, N 2.89, P 1.77, Q 2.69, R 2.5, T 2.75, V 2.43, W 2.67, Y 2.6
N20: A 3.25, C 3.21, D 4, E 3.42, F 1.57, G 2.46, H 2.69, I 1.94, K 3, L 3.05, M 2.54, P 2.49, Q 4.04, R 2.01, S 3.09, T 2.94, V 2.04, W 1.57, Y 2.56
L21: A 2.56, C 3.13, D 2.72, E 2.92, F 2.32, G 2.62, H 2.83, I 2.47, K 2.87, M 2.48, N 2.44, P 1.93, Q 2.38, R 2.64, S 2.19, T 2.56, V 2.85, W 2.44, Y 2.12
I22: A 2.8, C 4.04, D 2.86, E 3.45, F 2.47, G 1.98, H 2.76, K 2.33, L 2.93, M 2.88, N 2.5, P 2.19, Q 3.09, R 2.76, S 2.55, T 2.35, V 2.73, W 1.79, Y 2.69
R23: A 3.08, C 3, D 3.77, E 3.06, F 2.42, G 2.65, H 2.56, I 1.91, K 3.19, L 2, M 2.52, N 2.96, P 2.93, Q 2.77, S 2.78, T 2.92, V 2.33, W 1.76, Y 1.91
H24: A 1.74, C 1.84, D 2.11, E 2.43, F 2.44, G 2.43, I 2.08, K 2.64, L 2.24, M 2.31, N 2.22, P 2.56, Q 2.43, R 2.07, S 2.4, T 2.35, V 2.27, W 2.38, Y 2.61

Variants of: B2
Test: as above
Conditions: c terminus: a fixed tail appended

Protein stability index, by site and new letter:
D11: W 2.32, F 2.96
G6: M 3.34, D 4.23, S 3.82, F 3.01, I 3.25
Q9: V 3.19, W 2.48, T 3.63, I 3.71, D 3.91
G18: T 3.41, P 3.83, N 3.58, V 3.32, Y 3, H 3.74
D15: T 2.95, Y 3.23, H 3.66
L23: F 3.15, K 4.76, G 4.99
F24: V 4.41, C 4.73, S 5.04, Y 3.87, P 4.64
H3: K 3.9, Q 3.29, N 4.09
I7: G 3.83, V 3.82, E 4.68, R 3.94, Q 4.01, H 4, K 3.56, M 3.38, C 3.56
T5: A 3.46, D 4.6, H 3.2
N21: E 4.86, G 3.5, Y 3.02, H 3.75, L 3.41, M 3.35, D 4.5, W 2.35, A 3.83
Q19: C 3.24, E 4.21, W 2.75, G 4.21, Y 3.36
G20: A 3.12, L 3.11, F 2.56, S 3.79, V 3.44
Q10: I 3.64, H 3.65, N 4.05, R 3.54
C4: T 4.32, Y 3.17, N 4.25, L 4.36
P12: I 3.51, V 3.96
S16: P 3.92, M 3.62, E 4.16, F 3.13, C 3.35, Y 3.44, I 3.1
G22: M 2.96, T 3.65, L 2.87, Q 3.44, P 3.95
Q17: R 3.71, F 2.81
E13: M 3.21, D 3.87, T 3.15, P 3.51, N 3.23
S14: E 3.84, R 3.79, H 3.73, C 3.54, Y 3.27, I 3.25
Y1: T 5.38, L 5.44, S 5.39, A 5.44, K 5.28
P2: L 3.96, F 3.86, A 3.57, E 5.31, R 4.71, N 4.54, S 4.65, I 2.83
S8: W 1.84, P 3.91, D 3.91, E 4.17
